Values joined by “and” are separate entries in the source; they are usually repeats but may differ in a detail not shown here. Equal values may be shown once.
What was measured:
[1] = biological target: DFDNB-cross-linked native dimer of N67D-BS-RNase (bovine) (UniProt P00669); assay: SEC; oligomers induced by lyophilisation from 40% acetic acid, re-dissolved in 0.2 or 0.4 M NaPi pH 6.7; Sephadex G-100 (0.1 M ammonium acetate pH 5.65) or Superdex 75 10/300 GL (0.2 or 0.4 M NaPi pH 6.7), room temperature; amounts as percent area of SEC peaks
[2] = biological target: (N67D/)K113N-BS-RNase (bovine) (UniProt P00669); assay: as above
[3] = biological target: (N67D/)K113N-BS-RNase (bovine) (UniProt P00669); assay: SEC; thermally induced oligomerisation: 150-200 mg/ml in aqueous media (40% EtOH, with or without guanidine, and others), 45, 50 or 60°C for 1 h, then 0.2 M NaPi pH 6.7; Superdex 75
[4] = biological target: (N67D/)K113N-BS-RNase (bovine) (UniProt P00669); assay: as above; remark: listed apart in the source
[5] = biological target: T1, bovine pancreatic ribonuclease (RNase A) (bovine), P61823; assay: SEC; oligomers induced by lyophilisation from 40% acetic acid, re-dissolved in 0.2 or 0.4 M NaPi pH 6.7; Sephadex G-100 (0.1 M ammonium acetate pH 5.65) or Superdex 75 10/300 GL (0.2 or 0.4 M NaPi pH 6.7), room temperature; amounts as percent area of SEC peaks; details: remark: other sources report otherwise
T1 chain: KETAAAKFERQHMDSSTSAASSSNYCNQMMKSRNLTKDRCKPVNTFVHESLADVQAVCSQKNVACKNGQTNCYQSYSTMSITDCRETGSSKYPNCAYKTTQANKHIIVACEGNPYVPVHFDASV

[6] = biological target: T1, bovine pancreatic ribonuclease (RNase …); assay: SEC; thermally induced oligomerisation: 150-200 mg/ml in aqueous media (40% EtOH, with or without guanidine, and others), 45, 50 or 60°C for 1 h, then 0.2 M NaPi pH 6.7; Superdex 75; details: remark: other sources report otherwise

DFDNB-cross-linked native dimer of N67D-BS-RNase (from UniProt P00669 27-150) (enzyme)
stoichiometry N [1]: 4

(N67D/)K113N-BS-RNase (from UniProt P00669 27-150) (enzyme)
stoichiometry N [2]: 4
yield of dimer D (% of the total) (% of the total) [2]: 53.7
yield of hexamers H (% of the total) (% of the total) [2]: 10.9
yield of larger oligomers L.O. (% of the total) (% of the total) [2]: 9.9
yield of tetramer TT1/C (% of the total) (% of the total) [2]: 13.3
yield of tetramer TT2/N (% of the total) (% of the total) [2]: 12.2
stoichiometry N [3]: 4
stoichiometry N [4]: > 4

B1: bovine pancreatic ribonuclease (RNase A), P61823 27-150 (enzyme)
chain: KETAAAKFERQHMDSSTSAASSSNYCNQMMKSRNLTKDRCKPVNTFVHESLADVQAVCSQKNVACKNGQTNCYQSYSTMSITDCRETGSSKYPNCAYKTTQANKHIIVACEGNPYVPVHFDASV
stoichiometry N [5]: 2 and 3 and 4
stoichiometry N [6]: 2

Source: publication PMC3469567
